# According to patent publication US7976845:
# Columns and labels:
# [1] = target: recombinant gB-CMV polyepitope protein (Human cytomegalovirus (AD169)); test: direct ELISA; plate coated with concentrated recombinant protein diluted 1:800; 2F12 at 1:8000; HRP anti-mouse Ig, TMB
# [2] = target: recombinant gB-CMV polyepitope protein (Human cytomegalovirus (AD169)); test: direct ELISA; plate coated with concentrated recombinant protein diluted 1:50; 2F12 at 1:8000; HRP anti-mouse Ig, TMB
# [3] = target: recombinant gB-CMV polyepitope protein (Human cytomegalovirus (AD169)); test: direct ELISA; plate coated with concentrated recombinant protein diluted 1:102400; 2F12 at 1:8000; HRP anti-mouse Ig, TMB
# [4] = target: recombinant gB-CMV polyepitope protein (Human cytomegalovirus (AD169)); test: direct ELISA; plate coated with concentrated recombinant protein diluted 1:12800; 2F12 at 1:8000; HRP anti-mouse Ig, TMB
# [5] = target: recombinant gB-CMV polyepitope protein (Human cytomegalovirus (AD169)); test: direct ELISA; plate coated with concentrated recombinant protein diluted 1:200; 2F12 at 1:8000; HRP anti-mouse Ig, TMB
# [6] = target: recombinant gB-CMV polyepitope protein (Human cytomegalovirus (AD169)); test: direct ELISA; plate coated with concentrated recombinant protein diluted 1:1600; 2F12 at 1:8000; HRP anti-mouse Ig, TMB
# [7] = target: recombinant gB-CMV polyepitope protein (Human cytomegalovirus (AD169)); test: direct ELISA; plate coated with concentrated recombinant protein diluted 1:25600; 2F12 at 1:8000; HRP anti-mouse Ig, TMB
# [8] = target: recombinant gB-CMV polyepitope protein (Human cytomegalovirus (AD169)); test: direct ELISA; plate coated with concentrated recombinant protein diluted 1:6400; 2F12 at 1:8000; HRP anti-mouse Ig, TMB
# [9] = target: recombinant gB-CMV polyepitope protein (Human cytomegalovirus (AD169)); test: direct ELISA; plate coated with concentrated recombinant protein diluted 1:400; 2F12 at 1:8000; HRP anti-mouse Ig, TMB
# [10] = target: recombinant gB-CMV polyepitope protein (Human cytomegalovirus (AD169)); test: direct ELISA; plate coated with concentrated recombinant protein diluted 1:3200; 2F12 at 1:8000; HRP anti-mouse Ig, TMB
# [11] = target: recombinant gB-CMV polyepitope protein (Human cytomegalovirus (AD169)); test: direct ELISA; plate coated with concentrated recombinant protein diluted 1:51200; 2F12 at 1:8000; HRP anti-mouse Ig, TMB
# [12] = target: recombinant gB-CMV polyepitope protein (Human cytomegalovirus (AD169)); test: direct ELISA; plate coated with concentrated recombinant protein diluted 1:100; 2F12 at 1:8000; HRP anti-mouse Ig, TMB
substance,measurement,setting,value
"anti-gB monoclonal antibody 2F12 (Abcam, UK)",OD,[1],0.486 OD
same,OD,[2],0.69 OD
same,OD,[3],0.144 OD
same,OD,[4],0.249 OD
same,OD,[5],0.408 OD
same,OD,[6],0.379 OD
same,OD,[7],0.277 OD
same,OD,[8],0.317 OD
same,OD,[9],0.59 OD
same,OD,[10],0.4 OD
same,OD,[11],0.19 OD
same,OD,[12],0.548 OD
